B1: Human PHOX2B transcription factor fragment comprising 26 alanine residues (XS26) (other)
chain: GPGGPGGEPGKGGAAAAAAAAAAAAAAAAAAAAAAAAAAGGLAAAGGPGQGWAPGPGPITSIPDSLGGPFASVLSSLQRPNGAKAALVKSSMF
notes: C-terminal fragment of human PHOX2B (XS construct, 228-314 in wild-type numbering) with the polyAla tract expanded from 20 to 26 alanines (241-266); Made in E. coli as a thioredoxin-His6-TEV fusion and cleaved with TEV; 15N/13C-labelled for NMR; For microscopy a C315 mutant tagged with ATTO-488 or ATTO-565 was mixed 1:400-1:600 with the unlabelled protein; also called +6 Ala variant; expanded …

Columns and labels:
[1] = target: Human PHOX2B transcription factor fragment comprising 26 alanine residues (XS26) (human) (UniProt Q99453); test: 13C-HSQC NMR titration, 0.1 mM XS26, 1:1 molar ratio, 25°C
[2] = target: Human PHOX2B transcription factor fragment comprising 26 alanine residues (XS26) (human) (UniProt Q99453); test: CACO NMR, 0.225 mM XS26 incubated 48 h at 25°C with 0.45 mM HSP70 (1:2)
[3] = target: the molecule itself; test: 15N spin relaxation, self-association
[4] = target: B1; test: confocal fluorescence microscopy, colocalisation in condensates
[5] = target: the molecule itself; test: 15N spin relaxation, overall correlation time, self-association

decrease of NMR signal intensity, polyAla moieties in disordered conformation [1] [%] | decrease of NMR signal intensity, polyAla tract in α-helical conformation [1] [%] | Molecule | binding result [3] | other results
> 50 | < 20 | Human HSP72 (named HSP70) (from UniProt P54652 1-639) | – | decrease of the population of nascent disordered alanines (CACO signal intensity) [2]: 50%
> 50 | < 40 | Human HSP90β (named HSP90) (from UniProt P08238 1-724) | – | –
– | – | B1 | binds | –
– | – | Human PHOX2B transcription factor fragment comprising 23 alanine residues (XS23) (other, XS fragment of human PHOX2B with the polyAla tract expanded from 20 to 23 alanines; Made as a thioredoxin-His6-TEV fusion and cleaved with TEV; also called +3 Ala variant) GPGGPGGEPGKGGAAAAAAAAAAAAAAAAAAAAAAAGGLAAAGGPGQGWAPGPGPITSIPDSLGGPFASVLSSLQRPNGAKAALVKSSMF | binds | –
– | – | Human PHOX2B transcription factor fragment comprising 20 alanine residues (XS20) (other, Fragment of residues 228-314 of human PHOX2B, polyAla tract at 241-260; Made as a thioredoxin-His6-TEV fusion and cleaved with TEV; For microscopy a C315 mutant tagged with ATTO-488 or ATTO-565 was mixed 1:400-1:600 with the unlabelled protein; also called wild type PHOX2B fragment; wt PHOX2B (20 alanines)) GPGGPGGEPGKGGAAAAAAAAAAAAAAAAAAAAGGLAAAGGPGQGWAPGPGPITSIPDSLGGPFASVLSSLQRPNGAKAALVKSSMF | – | binding result [4]: binds; binding result [5]: binds

Reference: EP4556905A1 (Agencia Estatal Consejo Superior De Investigaciones …, dated 2025)
